Assay: yeast display, Sf9 membrane polyspecificity reagent, FACS + sequencing; frameworks hold sequencing errors
How it was run: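 Galactose induction of a Saccharomyces cerevisiae BJ5465 synthetic nanobody display library ran 36–48 hours. The cells were then stained for 1 hour at 4 °C with 10% biotinylated, detergent-solubilized Sf9 membrane reagent, pulled down on streptavidin microbeads and FACS-sorted into low and high (top ~1%) gates on expression and reagent-binding fluorescence. Labels for polyreactivity follow the gate of origin.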
For “QVQLVESGGGLVQAGGSLRLSCAASGSIFVPYAMGWYRQAPGKERELDAVITSGGSTYYADSVKGRFSISRDNAKNTVYLQMNSLKPEDTAVYYCNADLYYVWSTLSQFDYWGQGTQVTVSS”, the “polyreactivity (PSR sort gate)” value was “low polyreactivity”. With “QVQLVESGGGLVQAGGSLRLSCAASGSIFVPYAMGWYRQAPGKERELVAAISSGGGRTYYADSVKGRFTISRDNAKNTVYLQMNRLKPEDTAVYYCAARYYIGYGHRTYGYDYWGQGTQVTVSS” the “polyreactivity (PSR sort gate)” value was “high polyreactivity”. In the case of “QVQLVESGGGLVQAGGSLRLSCAASGSIFVPYGMGWYRKAPGTDRELVAAITFRTTSTYYADSVKGRFTISRDNAKNTVYLQMNSLKPEDTAVYYCNKGDYRTYPYDYWGQGTQVTVSS”, the “polyreactivity (PSR sort gate)” value is reported as “low polyreactivity”. For “QVQLVESGGGLVQAGGSLRLSCAASGSIFVQNRMGWYRQAPGKERELVAAITFSGVDTYYADSVKGRFTISRDNAKNTVYLQMNSLKPEDTAVYYCAARVQHYLSTDDYWGQGTQVTVSS”, the “polyreactivity (PSR sort gate)” value was “low polyreactivity”. With “QVQLVESGGGLVQAGGSLRLSCAASGSIFVQYDMGWYRQAPGKERELVAAISWSGGSTYYADSVKGRFTISRDNAKNTVYLQMNTLKPEDTAVYYCAARARLWYFSYGYWGQGTQVTVSS” the “polyreactivity (PSR sort gate)” value was “low polyreactivity”. In the case of “QVQLVESGGGLVQAGGSLRLSCAASGSIFVRNAKGCYRQAPWKERELVAAITATGGRTYYADSVKGRFTISRDNAKNTVYLQMNSLKPEDTAVYYCAAYYPRSGYDYWGQGTQVNVSS”, the “polyreactivity (PSR sort gate)” value is reported as “high polyreactivity”. In the case of “QVQLVESGGGLVQAGGSLRLSCAASGSIFVRNAMGWYRQSPGKERELVAAITSGDSTNYADSVKGRFTISRDNAKNTVYLQMYCLKPEDTAVYYCNAQIYSVYRDGRDIYKYDYWGQGTQVTVSS”, the “polyreactivity (PSR sort gate)” value is reported as “low polyreactivity”. In the case of “QVQLVESGGGLVQAGGSLRLSCAASGSIFVRNGMGWYRQAPGKDRELVASITSGTITYYADSVKGRFTISRDNAKNTVYLQMNSLKPEDTAVYDCNAGWRSSRFKRPYFRERNYWGQGTQLTVSS”, the “polyreactivity (PSR sort gate)” value is reported as “high polyreactivity”. In the case of “QVQLVESGGGLVQAGGSLRLSCAASGSIFVSYAMGWYRQAPGKERELVAAITSAGTTYYADSVKGRFTISRDNAKNTVYLQMNSLKPEDTAVYYCNADTYGYYLWTGAVSAGDDYWGQGTQVTVSS”, the “polyreactivity (PSR sort gate)” value is reported as “low polyreactivity”. With “QVQLVESGGGLVQAGGSLRLSCAASGSIFVSYAMGWYRQAPGKERELVAAITYSGGRTYYADSVKGRFTISRDNAKNTVYLQMNCLKPEDTAVYYCAKRVSYPVRFPYFSYDYWGQGTQVTVSS” the “polyreactivity (PSR sort gate)” value was “low polyreactivity”. With “QVQLVESGGGLVQAGGSLRLSCAASGSIFVTNAMGWYRQAPGKERELVAAISVSGGSTYYADSEKGRITISRDNAKNTVYLQMNRLKAEDTAGYYCNARQVFTTAGREMDYWGQGTQVTVSS” the “polyreactivity (PSR sort gate)” value was “low polyreactivity”. For “QVQLVESGGGLVQAGGSLRLSCAASGSIFVTNAMGWYRQAPGKERELVAAISWSGDNTYYADSVKGRFTISRDNAKNTFYLQMNSLIPEDTAVYYCSTDVWYSYDYYYGDWGYEYWGQGTQVTVSS”, the “polyreactivity (PSR sort gate)” value was “high polyreactivity”. With “QVQLVESGGGLVQAGGSLRLSCAASGSIFVTNVMGWYRQAPGKERELVAVINSGGRTYYADSVKGRFTISRDNAKNTVYLQMNSLKPEDTAVYYCAKDSWSSFQSLYPEFDYWGQGTQVTVSS” the “polyreactivity (PSR sort gate)” value was “low polyreactivity”. For “QVQLVESGGGLVQAGGSLRLSCAASGSIFVWNAMGWYRQAPGKERELVAAITNICGRTYYADSVKGRFTISRDNAKNTVYLQMNSLKPEDTAVYYCNTDRVSRLGWSTTSDSWGQGTQVTVSS”, the “polyreactivity (PSR sort gate)” value was “high polyreactivity”. With “QVQLVESGGGLVQAGGSLRLSCAASGSIFVWYAMGWYRQAPGRKELVAAISWSGGTTYYADSVKGRFTISRDNAKNTVYLQMNSLKPEDTAVYYCAARGAVQASFYYWGQGTQVTVSS” the “polyreactivity (PSR sort gate)” value was “high polyreactivity”. For “QVQLVESGGGLVQAGGSLRLSCAASGSIFVYNAMGWYRQAPGKERELVASITWSGGRTYYADSVKGRFTNSRDNAQNTVYLQMNSLKPEDTAVYYCAADSPRGYDYWGQGTQVTVSS”, the “polyreactivity (PSR sort gate)” value was “high polyreactivity”. With “QVQLVESGGGLVQAGGSLRLSCAASGSIFVYVMGWYRQAPGKERELVAAISSGGSTDYADSVKGRFTISRDNAQNTVYLQMNSLKPEDTAVYYCAADTDTGYTYYYWGQGTQVTVSS” the “polyreactivity (PSR sort gate)” value was “low polyreactivity”. With “QVQLVESGGGLVQAGGSLRLSCAASGSIFVYYAMGWYRQAPGKERELVAAINFRGGNTYYADSVKGRFTISRDNAKNTVYLQMNSLKPEDTAVYYCAADYRWKWIGGARYDYWGQGTQVTVSS” the “polyreactivity (PSR sort gate)” value was “low polyreactivity”. In the case of “QVQLVESGGGLVQAGGSLRLSCAASGSIFVYYAMGWYRQAPGKERELVAAISQRGGRTYYADSVKGRFTISRDNAKNTVYLQMNSLKPEDTAVYYCAADSGPASAGYYYWGQGTQVTVSS”, the “polyreactivity (PSR sort gate)” value is reported as “high polyreactivity”. For “QVQLVESGGGLVQAGGSLRLSCAASGSIFVYYAMGWYRQAPGKERELVAAISSGGRTYYADSVKGRFTISRDNAKNTVSLQMNSLKPEDTAVYYCNAVHYFQYGYYSWGQGTQVTVSS”, the “polyreactivity (PSR sort gate)” value was “high polyreactivity”. In the case of “QVQLVESGGGLVQAGGSLRLSCAASGSIFVYYAMGWYRQAPGKERELVAAITRRGGSTYYADSVKGRFTISRDNAKNTVYLQMNSLKPEDTAVYYCNSYTSRQYGLEYWGQGTQVSVSS”, the “polyreactivity (PSR sort gate)” value is reported as “high polyreactivity”. In the case of “QVQLVESGGGLVQAGGSLRLSCAASGSIFVYYAMGWYRQAPGKERELVAAITSGGSTNYADSVKGRFTISRDNAQNTVYLQMNSLKPEDTAVYYCAVVTRAHPEDYWGQGTQVTVSS”, the “polyreactivity (PSR sort gate)” value is reported as “high polyreactivity”. With “QVQLVESGGGLVQAGGSLRLSCAASGSIFVYYAMGWYRQAPGKERELVAGISTSGGSTYYADSVKGRFTISRDNAKNTVYLQMNSLKPEDTAVYYCAAVDSFGYYKLYEYWGQGTQVTVSS” the “polyreactivity (PSR sort gate)” value was “high polyreactivity”. For “QVQLVESGGGLVQAGGSLRLSCAASGSIFVYYAMGWYRQAPGKERELVATITNDGSTYADSVKGRFTISRDNAKNTVYLQMNSLKPEDTAVYYCAAKIPSDRTIYDYWGQGTQVTVSS”, the “polyreactivity (PSR sort gate)” value was “low polyreactivity”. For “QVQLVESGGGLVQAGGSLRLSCAASGSIFVYYTMGWYRKAPGKERELVASIDSGDRTNYADSVKGRFTISRDNAKNTVYLQMNSLKPEDTAVYYCAARHSRSWRFNSRRRYGYWGQGTQVTVSS”, the “polyreactivity (PSR sort gate)” value was “high polyreactivity”. In the case of “QVQLVESGGGLVQAGGSLRLSCAASGSIFWDNAMGWYRQAPGKERELVAAITSSGDTTYYADSVKGRFTISRDNAKNTVYVQMNSLKPEDTAVYYCAKVFGPTDYLTGTFKGDYWGQGTQVTVSS”, the “polyreactivity (PSR sort gate)” value is reported as “low polyreactivity”. In the case of “QVQLVESGGGLVQAGGSLRLSCAASGSIFWGNAMGWYRQAPGKERELVAAIDWSGGSTYYADSVKGRFTISRDNAKNTVYLQMNSLKPEDTAVYYCAASGRYDYDYWGQGTQVTVSS”, the “polyreactivity (PSR sort gate)” value is reported as “low polyreactivity”. With “QVQLVESGGGLVQAGGSLRLSCAASGSIFWGNAMGWYRQAPGKERELVAAITSGGSTNYADSVKGRFTISRDNAKNTVYLQMNSLKPEDTAVYYCIADVARVPFEFDYWGQGTQVTVSS” the “polyreactivity (PSR sort gate)” value was “low polyreactivity”. With “QVQLVESGGGLVQAGGSLRLSCAASGSIFWGNDMGWYRQAPGKERELVAGIRNSGTSTYYADSVKGRFTISRDNAKNTVYVQMNSLKPEDTAVYDCAAADGRQYSRYYWRGHDYWGQGTQVTVSS” the “polyreactivity (PSR sort gate)” value was “low polyreactivity”. For “QVQLVESGGGLVQAGGSLRLSCAASGSIFWINAMGWYRQAPGKERELVADIDVSGGSTYYADSVKGRFTISRDNAKNTVYLQMNSLKPEDTAVYYCAADDYWAYLYYKTSEYDYWGQGTQVTVSS”, the “polyreactivity (PSR sort gate)” value was “low polyreactivity”. With “QVQLVESGGGLVQAGGSLRLSCAASGSIFWIYAMGWYRQAPGKERELVATITRRGGSTYYADSVKGRFTISRDNAKNTGYLQMNSLKPEDSAVYYCATEPGYTYLTSYKYDYWGQGTQVTVSS” the “polyreactivity (PSR sort gate)” value was “low polyreactivity”. In the case of “QVQLVESGGGLVQAGGSLRLSCAASGSIFWLYAMGWYRQAPGKERELVARINWSGGNTYYADSVKGRFTISRDNAKNTDYLQMNSLKPEDTAVYYCNARSQYRMNYWGQGTQVTGSS”, the “polyreactivity (PSR sort gate)” value is reported as “low polyreactivity”. For “QVQLVESGGGLVQAGGSLRLSCAASGSIFWNNAMGWYRQAPGKERELVAGISGGSTNYADSVKGRFTISRDNAKNTVYLQMNSLKPEDTAVYYCATERQWESRFEAYDYWGQGTQVTVSS”, the “polyreactivity (PSR sort gate)” value was “low polyreactivity”. In the case of “QVQLVESGGGLVQAGGSLRLSCAASGSIFWPYAMGWYRQAPGKERELVAAISSSGTSTYYADSVKGRFTISRDNAKNTVYLQMNSLKPEDTAVYYCAKELFTYPYEYWGQGTQVTVSS”, the “polyreactivity (PSR sort gate)” value is reported as “low polyreactivity”. With “QVQLVESGGGLVQAGGSLRLSCAASGSIFWQNAMGWYRQAPGKERELVAAISRNGGSTNYADSVKGRFTISRDNAKNTVYLQMNSLKPEDTAVYYCAAVGTVSRTVGYNYWGQGTQVTVSS” the “polyreactivity (PSR sort gate)” value was “high polyreactivity”. With “QVQLVESGGGLVQAGGSLRLSCAASGSIFWQNTMGWYRQAPGKERELVATISSGDSTYYADSVKGRFTISRDNAKNTVYLQMNSLKPEDTAVYYCNTTEHKYVSSFEYGYWGQGTQVTVSS” the “polyreactivity (PSR sort gate)” value was “low polyreactivity”. With “QVQLVESGGGLVQAGGSLRLSCAASGSIFWQYAMGWYRQAPGKERELVAAINWSGDTTYYADSVKGRFTISRDNAKNTVYLQMNSLKPEDTAVYFCAAVGGVSYGGSPKTHAGEDYWGQGTQVTVSS” the “polyreactivity (PSR sort gate)” value was “low polyreactivity”. In the case of “QVQLVESGGGLVQAGGSLRLSCAASGSIFWSNAMGWYRQAPGKELELVAAITTSDGSTYYADSVKGRFTISRDNAKNTVYLQMNSLKPEDNAVYYCAADASTWYTEEYWGQGTQVTVSS”, the “polyreactivity (PSR sort gate)” value is reported as “low polyreactivity”. With “QVQLVESGGGLVQAGGSLRLSCAASGSIFWSYAMGWYRQAPGKERELVAAINWSGGRTYYADSVKGRFTISRDNAKNTVYLQMNSLKPEDTAVYYCNAPVHTAQGDEYDYWGQGTQVTVSS” the “polyreactivity (PSR sort gate)” value was “high polyreactivity”. In the case of “QVQLVESGGGLVQAGGSLRLSCAASGSIFWSYDMGWYRQAPGKERELVATITSGDSTYYADSVKGRFTISRDNAKNTVYLQMNSLKPEDTAVYYCNVDVSVEVAYWGQGTQVTVSS”, the “polyreactivity (PSR sort gate)” value is reported as “low polyreactivity”. In the case of “QVQLVESGGGLVQAGGSLRLSCAASGSIFWVYAMGWYRQAPGKERELVAAISSSGGRTYYADSVKGRFTISRDNAKNTVYLQMNSVKPEVTAVYYCAARWKTGYNYWGQGTQVTVSS”, the “polyreactivity (PSR sort gate)” value is reported as “high polyreactivity”. With “QVQLVESGGGLVQAGGSLRLSCAASGSIFWWNAMGWYRQAPGKERELVAAINWSTGRTYYADSVKGRFTISRDNAKNTVYLQMNSLKPEDTAVYYCNADSKSSYYWYLWYNYWGQGTQVTVSS” the “polyreactivity (PSR sort gate)” value was “low polyreactivity”. For “QVQLVESGGGLVQAGGSLRLSCAASGSIFWWNTMGWYRQAPGKERELVAAITFSGGSTYYADSVKGRFTISRDNAKNTVYLQMNSLKPEDTAVYYCNADGWVSVRGTWSDGGYWGQGTQVTVSS”, the “polyreactivity (PSR sort gate)” value was “low polyreactivity”.

From the nanobody polyreactivity screen of Harvey et al. (2022)
